Experiment: yeast display, Sf9 membrane polyspecificity reagent, FACS + sequencing; frameworks hold sequencing errors
How it was run: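 Nanobodies from a synthetic yeast display library (Saccharomyces cerevisiae BJ5465), induced 36–48 hours with galactose, were stained 1 hour at 4 °C with 10% biotinylated, detergent-solubilized Sf9 membrane reagent, enriched on streptavidin microbeads, then FACS-sorted. Anti-HA (expression) and streptavidin (reagent binding) fluorescence set low and high (top ~1%) gates. Polyreactivity labels come from the gate of origin. Genes were colony-PCR amplified, MiSeq 2 × 250 sequenced and filtered by CDR length.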

Sequence	polyreactivity (PSR sort gate)
QVQLVESGGGLVQAGGSLRLSCAASGSIFKQNAMGWYRQAPGKDRELVASIRASGDRTYYADSVKGRFTISRDNAKNTVYLQMNSLKPEDTAVYYCAARRVRTRGYNYWGQGTQVTVSS	high polyreactivity
QVQLVESGGGLVQAGGSLRLSCAASGSISFINAIGWYRQATGKERELVAAISGSGGSTYYADSVKGRFTISRDNAKNTVFLQMNSLKPEDTAVYYCAVPLPSRIYGYWGQGTQVTVSS	low polyreactivity
QVHLVESGGGLVQAGGSRRLSCAASGFTLSYYAMGWYRQAPGKERELVATISRVGTTYADSVKGRFTISRDNAKNTVYLQMNSLKPEDTAVYYCAVRSRWPYYFTRGVREGDYWGQGTQVTVSS	high polyreactivity
QVQLVESGGGLVQAGGSLRLSCAASGFTIWQNAMGWYRQAPGKERELVAGIRLSGGSTYADSVKGRFTISRDNAKNTVYLQMNSLKAEDTAVYYCNAAYKNSPYDYWGQGTQVTVSS	high polyreactivity
QVQLVESGGGLVQAGGSLRLSCAASGFTFRRYAMGWYRQAPGKERELVASISWTGGSTHYADSVKGRFTISRDNAKNTVYLQMNSLKPEDSAVYYSNTVWYYLRSFNIDHYYDYWGQGTQVTVSS	high polyreactivity
QVQLVESGGGLVQAGGSLRLSCAATGSIFQSYAMGRYRQAPGKERELVAGISSGGSTNYADSVKGRFTISRDNAMNTDYLQMNSLKPEDTAVYYCATGGFAGASFAYEYYYWGQGTQVTVSS	low polyreactivity
QVQLVESGGGLVQAGGSLRLSCAASGSIFPVYAMGWYRQAPGKERELVATIRSGGARTYYADSVKGRFTISRDNAKNTVYLQMNSLKPEDTAVYYCAVDQSRWQARYYYWGQGTQVTVSS	high polyreactivity
QVQLVESGGGLVQAGGSLRLSCAASGSIFKYYAMGWYRQAPGKERELVAAITWSGTRTYYADSVKGRFTISRDNAKNTVYLQMNSLKPEDTAVYYCNAPRYLYSAGRFNYWGQGTQVTVSS	high polyreactivity
QVQLVESGGGLVQAGGSLRLSCAASGSIFKWYTMGWYRQAPGKERELVAAITWGGGSTYYADSVKGRFTISRDNAKNTVYLQMNSLKPEDTAVYYCNAEYVVADYGYYTIEFDYWGQGTQVTVSS	low polyreactivity
HVQLVETGGGIVQAGGSLRLSCAASGFIFRYYARGWYRPSHGKETELVAAIDYSGGSTNYADSVKGRFTISRDYAKNTVSLQMNSLKPEDTAVYYCAAYLGWGYDYWGQGTQVTVSS	low polyreactivity
QVQLVESGGGLVQAGGSLRLSCAASGIIFVSYAMGWYRQAPGKERELVAAITRRGSRTYYADSVKGRFTISRDNAKNTVYLQMNSLKPEDTAVYYCAADSQAARYHAYDYWGQGTQVTVSS	high polyreactivity
QVQLVESGGGLVQAGGSLRLSCAASGSIFDYNAMGGYRQAPGKERELVAAISSGGSTYYADSVKGRFTISRDNAKNTVNLQMNSLKPEDTAVYYCAVKFWVVIQFDYWGQGTHVTVSS	low polyreactivity
QVQLVESGGGLVQAGGSHRLSCADSGRTFRTYAMGWYRQAPGKERELVAAITTSGSSTYYADSVKGRFTISRDNAKNTVYLQMNSLKPEDTAVYYCAAARSAIVPGYYSWGQGTQVTVSS	low polyreactivity
QVQIVESGGGLVQAGGSLSLSCAASGFIFSVNDMGWYRQAPGKERELVAAISRDSGSKYYADSVKGRFTISRDNAQNSVYLEMISLKPEDTAVYDCNGEGQWVWDPYGVYDDDSYNYWGQGTQVTVSS	low polyreactivity
QVQLVESGGGLVQAGGSLRLSCAASGRIFRRYAMGWYRQAPGKERELVAAISVTGGRTYYADSVKGRFTISRDNAKNTVYLQMNSLKPEDTAVYYCNTLQYQERYAYDYWGQGTQVTVSS	high polyreactivity
QVQLVESGGGIVQAGGSLRLSCAASGFTIWKYAMGLYRQAPGKERELVAAISVSGGRTNYADSVKGRFTISGDNAKNTVYLQMNSLKPEDTAVYYCIATPWRPYVGGEYWGQGTHVTVSS	high polyreactivity
QFQLVESGGGLVQAGGSLRLSSAASGFIIRYYAMGWYRQAPGKERELVAAISASGGSTYYADSVKGRFTISRDNAKNTVYLQMNSLKPEDTAVYYCAARYWLREDYWGQGTQVTVSS	high polyreactivity
QVQLVESGGGLVQAGGSLRLSCAASGSIFSIYAMGWYRQAPGKERELVAAIDSGTSTTYADSVKGRFTISRDNAKNTVYLQMNSLKPEDTAVYYCAAALYSDVAAVATYVYYWGQGTQVTVSS	low polyreactivity
QVQLVESGGGLVQAGGSLRLSCAASGYTFPIYAMGWYRQAPGTERELVAGISKNGGSTYYADSVKGRFTISRDNAKNTVYLQMNSLKPVDTAVYYCNASAWGRPYYLGSYFVYPGYEYWGQGTEVTVSS	low polyreactivity
QVQLGESGGGLVQAGGSLRLTCAASGYIFISDAMGLYRQAHGKEREFVAAITGDGGSTYADSVKGRFTISRYNAKNTVYLQMNSLKPEDTAVYYCAAEGQLFDLYDYWGQGTEVTVSS	low polyreactivity
QVQLVESGGGLVQAGGSLRLSCAASGSIFSYYVMGWYRQAPGKERELVAAITRSGGSTYYADSVKGRFTISRDNAKNTVYLQMNRLKPEDTAVYYCAATYSHRRGDYWGQGTQVTVSS	high polyreactivity
QVQLVESGGALVQAGGSLRLTCAASGSTFWDNSMGWYRQAPGKEREFVADITAIGGTTYYADSVKGRFTISRDNAQNTVYLQMNSLKPEDTAVYYCAADWTTYGFSYFSIYYYWGQGTQVTVSS	low polyreactivity

Sequence	polyreactivity (PSR sort gate)
QVQLVESGGGLVQAGGSLRLSCAASGFILGLNAMGWYRQAPGKEREFVADISWSGDSTYYADSVKGRFTISRDNAKNTVYLQMNSLKPEDTAVYYCAADPYYNWCYYYWGQGTQVTVSS	low polyreactivity
QVQLVESGGGLVQAGGSLRLSCAPSRSTFWRYAMGWYRQAPGKERELFARISWSAGSTYYADSVKGRFTISRDNAKNTVYLQMNRLKPEDSAVYYCAAQPYKYSGRYQSKPYLLLYDYWGQGTQVTVSS	high polyreactivity
QVQLVESGGGLVQAGGSLRLSCAASGSIFYVYAMGWYRQAPGKERELVAAINTAGGSTFYADSVKGRFTISRDNAKNPVSLQMTSLKPEETAVYYCAAERYRYRSTDTMGYWGQGTQVTVSS	low polyreactivity
QVQLVESGGGLGQAGASLRLSSAATGFTFRPNAMGWYRQAPGKERELVAAISWRGTRTSYADSVKGRFTISRDNAKNTVYLQMNSLKPEDTAVYSCAARLVRRYDYDYWGQGTQVTVSS	high polyreactivity
QVHLVESGGGLVQAGGSLRLSCSASGSIFRLNAMGWYRQAPGKERELVAAITWSDSSTYYADSVKGRFTISRDNAKNTVYLQMNSLKPVDTAVYYCAADPQSYKYDYWGQGTQVTVSS	low polyreactivity
QVQLVESGGGLVQAGGSLRLSCAASGSTFKVYAIGWYRQAPGKERELVAGISSGGNTNYADSVKGRFTISRDNAKNTVYLQMNSLKPEDTAVYYCNTDWYLPRYVLLGYFSGTEDYWGQGTQVTVSS	low polyreactivity
QVQLVESAGGLDQAGGSLPLSCAASGRIFRYNAMGWYRQAPGKERELVSAITWNGASTFYADSVKGRFTISRDNAKNSVYLLMNSLKPEDTAVYYCAYVRDFSGYWLWSYNLYDYWGQGTKVTVSS	high polyreactivity
QVQLVESGGGLVQAGGSLRLSCAASGRTFPYNAMGWYRQAPGKERELVAAITWRGGRTYYADSVKGRFTISRDYAKNTVYLQMNSLKPEDSAVYYCATVRVSRVRPFWNVWRSNYWGQGTQVTVSS	high polyreactivity
QVQLVESGGGLVQAGGSLRLSCAASGITFSRNAMGWYRQAPGKERELVAVISTRGGRTYYADSVKGRFTISRDNAKNTVYLQMNSLKPEDTAVYYCAASPDPYWRRMDYWGQGTQVTVSS	high polyreactivity
QVQLVDSGGGLVQAGGSLSLSCAASGFTFVRYAMGWYRQAPGKERELVAAISGRGGSTYFADSVKGRFTISRDYAKNTVYLQMNSLKPDDTAVYYCATDYSRTFDYWGQGTQVTVSS	high polyreactivity
QVQLVESGGGLVQAGGSLRLSCAASGRTFYSYAMGWYRQAPGKERELVAAITWRGVRTYYADSVKGRFTISRDNAKNTVYLQMNSLKPEDTAVYYCAAGGVRTRSWDTSLINRYGYWGQGTQVTVSS	high polyreactivity
QVQLVESGGGLVQAGGSLRLSCAASGRTFASYMGWYRQAPWKERELVAAINWSGGTTYYADSVKGRFTISRDNAKNSVYLQMNSLKPEDTAVYYCNKLGYQSRGDYWGQGTQVTVSS	high polyreactivity
QVQLVESGGGLVQAGGSLRLSCAASGFIFRPNAMGWYRQAPGKERELVAAITRDGDRTYYADSVKGRFTISRDNAKNTVYLQMNSLKPEETAVYYCAADVIQWWTRYYTWEYDYWGQGTQVTVSS	low polyreactivity
QVPHVESGGGLVQAGGSLRLSSAASGFIHKSYTMGWYRQAPGKERELVAAISRSGASKYYAYSVKGRFTISRDNAKNTVYLQMNSLKPEDTAVYYCNRRRHNIGTGEYNYWGQGTQVTVSS	high polyreactivity
QVQLVESGGGLVQAGGSLRLSCDASGLTFDQYAMGWYRQGPGKERELVAAISGSDSTYYADSVKGRFTISRDNAKNTVYLQMNSLKPEDTAVYYCAASGDYVNIITGERFDARLYDYWGQGTQVTVSS	low polyreactivity
QVQLVESGGGLVQAGGSLRLSCAASGRTSYGYAMGWYRQAPGKERDLFAAITYGGGSTYYADTVKGRFTISRDNANNTVYLQMNSLIPEDTALYYCAADRTGSTLYTISYYYWGQGTQVTVSS	low polyreactivity
QVQLVESGGGLVQAGGSLRLSCAASGSNFTWYAMGWYRQAPGKERELVADIDWSGGSTYYADSVKGRFTISRDNAKNTVYLQMNSLKPEDTAVYYCNAVFLFYEYWGQGTQVTVSS	low polyreactivity
QVQIVESGGGLVQAGGRLRLSCAYSGLIISWYAMGCDIQSPGKERELVAAISGSVGSTYYADPVKGRFTISRDNAKNTVYLQMNSLKPEDTAVYYCAARSKDGGGPMYYWGQGTQVTVSS	high polyreactivity
QVQLEESGGGLVQAGGSLRLSCAASGIIFSGNAMGWYRQAPGKERELVAANTRSGGTTYYADSVKGRFTISRDNAKNTVYLQMNSLKPEDTAVYYCAASYPLYVFYVSGYDYWGQGTQVTVSS	low polyreactivity
QVQLVESGGGLVQAGGSLRLSCAASGRIFWYYTMGWYRQAPGKERELVAAISRGGSTYYADSVKGRFTISRDNAKNTVYLQMNSLKPEDTAVYYCAAQESWKIYDYWGQGTQVTVSS	low polyreactivity
QVQLVESGGGLVQAGGSLRLSCAASGITFPRYVMGWYRQAPGKERELVAAISTSGGSTYYADSVKGRFTISRDNAKNTVYLQMNSLKPEDTAVYYCAALDIYSSTYPVEYDYWGQGTQVTVSS	high polyreactivity

Reference: the nanobody polyreactivity screen of Harvey et al. (2022)
